The values below are quoted from earlier work in publication PMC2879707.

In general, Kd refers to the concentration at which binding is half-saturated.

This data set addresses F-actin (Oryctolagus cuniculus) (UniProt P68135).

espin (from UniProt Q63618): the Kd is 150 nM.
